Results on 6 molecules are retold here after publication PMC11754111 (2025).

Where no end group is shown, it is not given here.

Holding throughout (experiment): ITC
(In general: In ITC the heat of successive injections is recorded.)

One experiment addresses T1, TAF3 PHD finger.
T1 chain: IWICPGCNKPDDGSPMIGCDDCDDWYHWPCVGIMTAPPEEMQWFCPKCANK

The target in the next experiment is T2, JMJDA Tudor domain.
T2 chain: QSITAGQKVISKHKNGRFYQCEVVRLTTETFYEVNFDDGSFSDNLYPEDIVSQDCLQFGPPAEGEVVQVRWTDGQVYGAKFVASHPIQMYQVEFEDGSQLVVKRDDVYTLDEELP

Another experiment addresses T3, JARID1A PHD finger.
T3 chain: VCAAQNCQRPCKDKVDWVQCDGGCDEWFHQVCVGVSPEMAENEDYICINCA

In a further experiment the target is T4, BPTF PHD finger.
T4 chain: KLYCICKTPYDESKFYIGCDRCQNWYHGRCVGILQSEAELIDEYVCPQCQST

B1: H3Q5his histone H3 tail peptide (ITC and crystal) (peptide)
chain: ARTKQTARKSTGGKA
modifications: histaminylated glutamine at 5; C-terminal amide (general statement of the peptide synthesis)
As a reminder, the Kd is the free concentration of one partner at which half of the binding sites on the other are occupied at equilibrium, for simple one-to-one binding. High values mean weaker binding, low ones tighter binding. The molecule B1 gave a Kd in the experiment with TAF3 PHD finger of 7.94 µM.

ARTKQTARKSTGGKA-NH2 [unmodified histone H3 N-terminal tail peptide (ITC)] had a Kd with TAF3 PHD finger of 21.5 µM.

B2: H3K4me3Q5his histone H3 tail peptide (ITC) (peptide)
chain: ARTKQTARKSTGGKA
modifications: trimethyl-lysine at 4; histaminylated glutamine at 5; C-terminal amide (general statement of the peptide synthesis)
As for B2, the Kd was 2.3 µM with JMJDA Tudor domain, 1.85 µM with JARID1A PHD finger and 1.94 µM in the experiment with BPTF PHD finger.

B3: H3K4me3Q5ser histone H3 tail peptide (ITC) (peptide)
chain: ARTKQTARKSTGGKA
modifications: trimethyl-lysine at 4; serotonylated glutamine at 5; C-terminal amide (general statement of the peptide synthesis)
Take B3: the Kd in the experiment with JMJDA Tudor domain came out at 3.61 µM; in the experiment with JARID1A PHD finger, 2.9 µM; with BPTF PHD finger, 2.72 µM.

B4: H3Q5ser histone H3 tail peptide (ITC) (peptide)
chain: ARTKQTARKSTGGKA
modifications: serotonylated glutamine at 5; C-terminal amide (general statement of the peptide synthesis)
Turning to B4, the Kd with TAF3 PHD finger is 3.79 µM.

Consider ARTK(Me3)QTARKSTGGKA-NH2 [H3K4me3 histone H3 tail peptide (ITC)], for which the Kd with JARID1A PHD finger stood at 1.68 µM; in the experiment with BPTF PHD finger, 1.81 µM.
